Experimental data reported in publication PMC4788097 (Structure (London, England : 1993), 2013).
Each block holds one binder with its values, some of them ahead of it.

What was measured:
Stx6 (3-110) [1] = biological target: T1, Stx6 (3-110) (human, UniProt O43752 3-110); assay: ITC
T1 sequence (looked up): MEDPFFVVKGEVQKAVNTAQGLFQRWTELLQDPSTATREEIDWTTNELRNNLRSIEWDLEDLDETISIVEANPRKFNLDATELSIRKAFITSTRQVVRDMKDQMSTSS

Stx10 (1-110) = biological target: T2, Stx10 (1-110) (human, UniProt O60499 1-110); assay: ITC
T2 sequence (looked up): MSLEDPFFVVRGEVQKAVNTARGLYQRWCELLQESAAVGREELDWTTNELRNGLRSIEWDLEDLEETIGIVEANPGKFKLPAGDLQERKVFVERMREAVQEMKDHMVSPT

Stx6 (3-110) [2] = biological target: T1, Stx6 (3-110); assay: crystal structure

Kd (Stx6 (3-110) [1]): 5.6 ± 0.7 µM | stoichiometry N (Stx6 (3-110) [1]): 0.8 | Kd (Stx10 (1-110)): 6.5 ± 0.8 µM | stoichiometry N (Stx10 (1-110)): 0.7
B1: Ang2 (1-69) (domain or fragment, human, UniProt Q9UID3 1-69, looked up)
chain: MAAAAAAGPSPGSGPGDSPEGPEGEAPERRRKAHGMLKLYYGLSEGEAAGRPAGPDPLDPTDLNGAHFD

binding result (Stx6 (3-110) [2]): binds
B2: Ang2 peptide 33AHGMLKLYYGLSEGEAA49 (peptide)
peptide: AHGMLKLYYGLSEGEAA
